In the assay the target is T1, Gal3 peptides (SEQ ID NOs: 3-26) (Homo sapiens, UniProt P17931).
T1 construct: a library of 24 amino acid peptides representing portions of Gal3; purchased LifeTein custom order
The assay can be described thus: Gal3 peptide library binding ELISA (epitope mapping). The following applies: for binding to Gal3 Peptide 6: Peptide 6 (SEQ ID NO: 8); for binding to Gal3 Peptide 7: Peptide 7 (SEQ ID NO: 9), amino acids 61-80 of Gal3; for binding to Gal3 Peptide 1: Peptide 1 (SEQ ID NO: 3), amino acids 1-20 of Gal3. As to the method: To identify the epitopes to which Gal3 antibodies with and without Gal3-INSR blocking activity bound, a library of 24 amino acid peptides representing portions of Gal3, depicted in FIG. 27, was produced and the ability of each peptide to bind Gal3 antibodies was evaluated by ELISA. At least 2 μg/ml of hGal3 peptide in 50 μl of PBS or 0.1 μg/ml of full-length human Gal3 protein (GenScript) and human Galectin-3 protein (Acro Biosystems, GA3-H5129) were diluted in PBS (Corning, 21-030-CM) to concentrations of at least 2 μg/ml or 0.1 μg/ml, respectively, and added to the wells of a 96-well ELISA plate (Thermo Fisher, 44-2404-21). After incubating the plate at 4° C. overnight, the plate was washed three times with PBST (PBS with 0.05% Tween 20 [VWR, 0777]). The plate was then blocked for an hour with 2% BSA (EMD Millipore, 126609) in PBST at room temperature with gentle rocking. Thereafter, the 2% BSA in PBST was discarded and human Galectin-3 hybridoma supernatants or antibodies were diluted in 2% BSA in PBST to concentrations of at least 0.1 μg/ml and added to the wells. The plate was incubated for an hour at room temperature with gentle rocking and then washed three times with PBST. Afterwards, Goat Anti-Mouse IgG-HRP (Jackson ImmunoResearch, 115-036-1461) or Goat Anti-Rat IgG HRP (Abcam, ab205720) diluted in 2% BSA in PBST (1:4000) were added to the wells. The plate was incubated for 30 minutes to 1 hour at room temperature with gentle rocking and then washed three times with PBST. TMB substrate (Thermo Scientific, 34029) was then added to each well. The reaction was stopped with 1M HCl (JT Baker, 5620-02) and read using a plate reader (Molecular Devices) at absorbance of 450 nm.
Human Gal3 peptides (LifeTein, custom order) and human Gal3 proteins (R&D Systems, 8259-GA; TrueBinding, QCB200349) were diluted in PBS (Corning, 21-030-CM) to concentrations of at least 100 μg/mL (peptides) or 1 μg/mL (proteins), and added to the wells of several 96-well ELISA plates (Thermo Fisher, 44-2404-21). After incubating the plates at 4° C. overnight, the plates were washed three times with PBST (PBS with 0.05% Tween 20 [VWR, 0777]). The plates were then blocked for an hour with 2% BSA (EMD Millipore, 126609) in PBST at room temperature with gentle rocking. Thereafter, the 2% BSA in PBST was discarded and Gal3-binding antibodies (reformatted hIgG4 [S228P]) were diluted in 2% BSA in PBST to concentrations of 5 μg/mL and added to the wells. The plates were incubated for an hour at room temperature with gentle rocking and then washed three times with PBST. Afterwards, Peroxidase AffiniPure F(ab′)2 Fragment Goat Anti-Human IgG (H+L) polyclonal antibody (Jackson ImmunoResearch, 109-036-003), was diluted in 2% BSA in PBST (1:4000) and added to the wells. The plates were incubated for 1 hour at room temperature with gentle rocking and then washed three times with PBST. TMB substrate (Thermo Scientific, 34029) was then added to each well. The reaction was stopped with 1M HCl (JT Baker, 5620-02) and read using a plate reader (Molecular Devices) at absorbance of 450 nm.
Background: ELISA stands for enzyme-linked immunosorbent assay.

Residue numbers refer to the chain shown, from its start. In names and notes the source's numbering stands.

B1: F846C.1B2: anti-Gal3 antibody (antibody, V domains shown)
VH: QIQLVQSGPELKKPGETVKISCKASGYTFTNYGMNWVKQAPGKGLKWMGWINTYTGEPSYADDFKGRFAFSLETSASTAYLQINNLKNEDMATYFCARWGGYAGDYYAMDFWGQGTSVTVSS
VL: NIWLTQSPSSLAVSAGEMVTMTCKSSQSVLYSSNQKNYLAWYQQKPGQSPKLLIYWASTRESGVPDRFTGSGSGTDFSLTISSVQAEDLAVYYCHQYLSSLTFGAGTKLELK
For B1, the “binding to Gal3 Peptide 7” value is “bind and bound”. Besides, for the setting “Peptide 5 (SEQ ID NO: 7)”, the “binding to Gal3 Peptide 5” value is reported as “bind”. Besides, where the note is “amino acids 51-70 of Gal3”, the “binding to Gal3 Peptide 6” value was “bind and bound”.

B2: F846C.2H3: anti-Gal3 antibody (antibody, V domains shown)
VH: B1 VH with A103D, F111Y
VL: B1 VL with W3M, L4M, M18K, T22S, S78T, A86P
Turning to B2, the “binding to Gal3 Peptide 6” value (amino acids 51-70 of Gal3) was “bind and bound”.

B3: F846C.1H5: anti-Gal3 antibody (antibody, V domains shown)
VH: EVQLLESGGGLVKPGGSLKLSCAASGFTFSSYAMSWVRQTPEKRLEWVASISSGGDTYYPDSVKGRFTISRDNARNILYLQMSSLRSEDTAMYYCASYGNSLFDYWGQGTTLTVSS
VL: DVVMTQTPLSLPVSLGDQASISCRSSQSLVHNSGNTYLHWYLQRPGQSPNLLIYKVSNRFSGVPDRFSGSGSGTDFTLKISRVAAEDLGVYFCSQSTHVPPTFGGGTKLEIK
With B3, the “binding to Gal3 Peptide 1” value was “bind and bound”.

B4: 13A12.2E5: anti-Gal3 monoclonal antibody (antibody, V domains shown)
VH: QIQLVQSGPELKKPGETVKISCKTSGYKFKTYVMSWVKQAPGKALKWMGWINTYSGVPTYADDFKGRFAFSLETSASTAYLEIINLKNEDTATYFCARDGNYGDPMDYWGQGTSVTVSS
VL: DVVMTQTPLTLSVAIGQPASISCKSSQSLLYTNGKTYLNWLLQRPGQSPKRLIYLLSKLDSGVPDRFSASGSGTDFTLKISRVEAEDLGVYYCLQSTHFPLTFGAGTKLEMK
Regarding B4, for the setting “Peptide 4 (SEQ ID NO: 6), amino acids 31-50 of Gal3”, the “binding to Gal3 Peptide 4” value was “bind”. The “binding to Gal3 Peptide 6” value (amino acids 51-70 of Gal3) is “bind and bound”.

B5: TB006: anti-Gal3 antibody (antibody, V domains shown)
VH: QVQLVQSGAEVKKPGASVKVSCKASGYSFTNYYMHWVRQAPGQRLEWMGWIYPGSGNTNYNEKFQGRVTITADTSASTAYMELSSLRSEDTAVYYCSTAPGGFDVWGQGTTVTVSS
VL: DIVMTQTPLSLSVTPGQPASISCKSSKSLLHSDGITYLYWYLQKPGQSPQLLIYRMSNLASGVPDRFSGSGSGTDFTLKISRVEAEDVGVYYCAQMLEFPLTFGQGTKLEIK
For B5, the “binding to Gal3 Peptide 6” value (amino acids 51-70 of Gal3, listed as IMT006 (TB006)) is “bind and bound”.

B6: F847C.10B9: anti-Gal3 antibody (antibody, V domains shown)
VH: QIQLVQSGPEVKKPGETVKISCKASGYIFTNYGMNWVKQAPGKGLKWMGWINTYTGEPTYTDDFKGRFAFSLETSASTAYLQINNLKNEDTATYFCAKFGNYVGAMDYWGQGTSVTVSS
VL: DIRMTQSPSSLSASLGDTITITCHASQNINVWLSWYQQKPGNIPKLLIYKASNLHTGVPSRFSGSGSGTGFTLTISSLQPEDIATYYCQQGQSYPYTFGGGTKLELK
As to B6, the “binding to Gal3 Peptide 1” value was “bind and bound”; the “binding to Gal3 Peptide 7” value is “bind and bound”.

B7: F847C.12F12: anti-Gal3 antibody (antibody, V domains shown)
VH: B6 VH with V11L, I28T, T61V, Q82R
VL: B6 VL with R3Q, M4V, T5I
As to B7, the “binding to Gal3 Peptide 1” value is “bind and bound”; the “binding to Gal3 Peptide 7” value was “bind and bound”.

B8: F847C.26F5: anti-Gal3 antibody (antibody, V domains shown)
VH: B6 VH
VL: B6 VL with D1E, R3K, T5N
B8: the “binding to Gal3 Peptide 1” value is “bind and bound”; the “binding to Gal3 Peptide 7” value is “bind and bound”.
